Measured values as given in the supplement of paper PMC10899765.

Key:
Details in all cases: 20 nM; 72 h
MCF10A [1] = assay: percent viability (nuclei count relative to siNT); higher = more viable cells
Method: (§1)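 After 72 h, cells were fixed and stained with Hoechst and anti-fibrillarin, and nucleoli per nucleus were counted with CellProfiler. Values are plate-adjusted percent effect for the one-nucleolus and 5+ nucleoli phenotypes, normalised to siNT (0%) and to the positive controls siNOL11 or siKIF11 (100%), as the mean of biological triplicates. Percent viability is the nuclei count relative to siNT.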

MCF10A [2] = assay: 5+ nucleoli phenotype percent effect (relative to siNT 0% and siKIF11 100%); higher = more cells with five or more nucleoli
Method: as §1

MCF10A [3] = assay: one-nucleolus phenotype percent effect (relative to siNT 0% and siNOL11 100%); higher = more cells with one nucleolus (ribosome biogenesis inhibition)
Method: as §1

Sequence | percent viability (MCF10A [1]) [%] | 5+ nucleoli phenotype percent effect (MCF10A [2]) [%] | one-nucleolus phenotype percent effect (MCF10A [3]) [%]
AUCCCUUGCAGGGGCUGUUGGGU [hsa-miR-623] | 91.7 | 53.3 | -13.1
AUCCGCGCUCUGACUCUCUGCC [hsa-miR-937-3p] | 78.1 | 8.26 | -5.97
AUCCUAGUCACGGCACCA [hsa-miR-7975] | 43.7 | -29.1 | 12.9
AUCCUCUCUUCCCUCCUCCCAG [hsa-miR-7111-3p] | 47.3 | -40 | 3.35
AUCCUCUUUCGUCCUUCCCACU [hsa-miR-6881-3p] | 49.2 | -36.4 | 22.7
AUCCUUGCUAUCUGGGUGCUA [hsa-miR-502-5p] | 40.4 | -11.6 | 8.98
AUCGCUGCGGUUGCGAGCGCUGU [hsa-miR-639] | 129 | 61.4 | -17.2
AUCGCUUUACCAUUCAUGUU [hsa-miR-4790-5p] | 34.2 | -9.48 | 16.1
AUCGGGAAUGUCGUGUCCGCCC [hsa-miR-425-3p] | 109 | -1.09 | -1.79
AUCGGGCCCUCGGCGCCGG [hsa-miR-3181] | 31.6 | -23.1 | 8.67
AUCGUGCAUCCCUUUAGAGUGU [hsa-miR-517a-3p] | 46.8 | -11.8 | 3.74
AUCGUGCAUCCCUUUAGAGUGU [hsa-miR-517b-3p] | 35.2 | -20.3 | 14.6
AUCGUGCAUCCUUUUAGAGUGU [hsa-miR-517c-3p] | 41.6 | -11.3 | 11.8
AUCUAAAUGCAGCAUGCCAGUC [hsa-miR-4799-5p] | 59.9 | 15 | -0.603
AUCUGACCUGAUGAAGGU [hsa-miR-4256] | 11.7 | 5.64 | 30.3
AUCUGCCAGCUUCCACAGUGG [hsa-miR-4727-5p] | 42.4 | -25.7 | 17.9
AUCUGCUCUCUUGUUCCCAG [hsa-miR-6828-3p] | 43.4 | 10.5 | 2.43
AUCUGGAGGUAAGAAGCACUUU [hsa-miR-516b-5p] | 61.6 | 48.7 | -1.83
AUCUGUAAGAGAAAGUAAAUGA [hsa-miR-3686] | 48.4 | 21.5 | -0.187
AUCUGUCUCGAUUGUUUCCAG [hsa-miR-6888-3p] | 110 | 6.29 | 23.5

Sequence | percent viability (MCF10A [1]) [%] | 5+ nucleoli phenotype percent effect (MCF10A [2]) [%] | one-nucleolus phenotype percent effect (MCF10A [3]) [%]
AUGAAGCCUUCUCUGCCUUACG [hsa-miR-7843-3p] | 37.8 | -32.5 | 15.8
AUGAAGUGCACUCAUGAUAUGU [hsa-miR-3616-5p] | 27.9 | -38.4 | 32.7
AUGACCUAUGAAUUGACAGAC [hsa-miR-215] | 29.2 | -16.4 | 45.7
AUGAGACUCAUGUAAAACAUCUU [hsa-miR-3672] | 52.6 | -24.8 | 34.3
AUGAGCGACUGUGCCUGACC [hsa-miR-5708] | 47.3 | -33 | 21.4
AUGAUCCAGGAACCUGCCUCU [hsa-miR-640] | 32.2 | -28.9 | 28.8
AUGCACCUGGGCAAGGAUUCUG [hsa-miR-500a-3p] | 34.2 | -12.9 | -2.54
AUGCAGGCCUGUGUACAGCACU [hsa-miR-6811-5p] | 19.1 | -31.3 | 57
AUGCCUCCCCCGGCCCCGCAG [hsa-miR-6836-3p] | 41.9 | -0.9 | -8.85
AUGCGAGGAUGCUGACAGUG [hsa-miR-4737] | 28.3 | -33.6 | 35.7
AUGCGGACCUGGGUUAGCGGAGU [hsa-miR-4754] | 38.8 | -38.9 | 47.4
AUGCUACUCGGAAAUCCCACUGA [hsa-miR-5089-3p] | 47.3 | -30.6 | 12.4
AUGCUGACAUAUUUACUAGAGG [hsa-miR-628-5p] | 107 | 32.8 | -9.78
AUGGAAUGUAUAUACGGAAUA [hsa-miR-3673] | 35.7 | -48.6 | 63.4
AUGGAGAAGGCUUCUGA [hsa-miR-4531] | 32.2 | -33.8 | 56.1
AUGGAGAUAGAUAUAGAAAU [hsa-miR-620] | 62.9 | -31.1 | 24
AUGGAGCUGGAACCAGAUCAGGC [hsa-miR-6874-5p] | 30.7 | -35.8 | 41.9
AUGGAUAAGGCUUUGGCUU [hsa-miR-1261] | 50.3 | -12.9 | 24.4
AUGGCAUCGUCCCCUGGUGGCU [hsa-miR-4642] | 31.3 | -4.74 | 16.6
AUGGCCAAAACUGCAGUUAUUUU [hsa-miR-548s] | 37.4 | 14.5 | 8.89

Sequence | percent viability (MCF10A [1]) [%] | 5+ nucleoli phenotype percent effect (MCF10A [2]) [%] | one-nucleolus phenotype percent effect (MCF10A [3]) [%]
AUGGCCAGAGCUCACACAGAGG [hsa-miR-4435] | 68 | 40.9 | -11.4
AUGGGGACAGGGAUCAGCAUGGC [hsa-miR-6810-5p] | 25.9 | -23.9 | 45.5
AUGGGGUGAGAUGGGGAGGAGCAGC [hsa-miR-6812-5p] | 23.7 | -19.9 | 12.2
AUGGGUGAAUUUGUAGAAGGAU [hsa-miR-1262] | 27.2 | -20.4 | 17.3
AUGGGUGAUGGGUGUGGUGU [hsa-miR-4701-3p] | 13.3 | -25 | 47.1
AUGGUACCCUGGCAUACUGAGU [hsa-miR-1263] | 24.8 | -22.2 | 49.6
AUGGUCACCUCCGGGACU [hsa-miR-5587-5p] | 60.6 | 41.6 | -15.8
AUGGUCUCCUGUUCUCUGCAG [hsa-miR-6843-3p] | 31.7 | 7.69 | 10.8
AUGGUUCCGUCAAGCACCAUGG [hsa-miR-218-1-3p] | 51 | 4.75 | 11.8
AUGUAGGGCUAAAAGCCAUGGG [hsa-miR-135b-3p] | 14.3 | 10.5 | 6.54
AUGUAUAAAUGUAUACACAC [hsa-miR-568] | 178 | 26.1 | -26.3
AUGUAUGUGUGCAUGUGCAUG [hsa-miR-297] | 116 | 34.4 | -26.3
AUGUCCAUAUUAUGGGUUAGU [hsa-miR-3912-5p] | 83.8 | 83.1 | -28.3
AUGUCCCACCCCCACUCCUGU [hsa-miR-4433b-5p] | 28.3 | -37.3 | 55.5
AUGUGAUUGACGGCUGACUCCA [hsa-miR-8070] | 23 | -27.8 | 26.5
AUGUGCCUGAGGGAGUAAGACA [hsa-miR-550b-2-5p] | 49.7 | -13.6 | 9.16
AUGUGGGCUCAGGCUCA [hsa-miR-4296] | 26.9 | -35.4 | 44.2
AUUAAGGACAUUUGUGAUUGAU [hsa-miR-4477b] | 37.8 | 7 | -4.92
AUUAGGUAGUGGCAGUGGAAC [hsa-miR-6509-5p] | 55.7 | 6.73 | -17.9
AUUCCUAGAAAUUGUUCAUA [hsa-miR-384] | 107 | 23.8 | -8.73
